Experiments:
[1] = test system: HeLa Kyoto; experiment: solubility change mitosis vs G1/S (difference of NP-40 vs SDS log2 ratios) (log2 ratio difference); higher = more soluble in mitosis
[2] = test system: HeLa Kyoto; experiment: thermal stability score vs G1/S (z-score of summed log2 fold changes over temperatures); higher = more thermally stable than in G1/S
[3] = test system: HeLa Kyoto; experiment: solubility in G1/S (NP-40 vs SDS abundance) (log2 ratio); higher = more soluble; conditions: cell cycle stage: G1/S
[4] = test system: HeLa Kyoto; experiment: melting temperature (median over replicates), in situ; higher = more thermally stable
[5] = cell cycle stage: early G1 (4.5 h after nocodazole release)
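For melting temperature (median over replicates), in situ in this document: HeLa Kyoto cells synchronized by double thymidine or nocodazole block, proteins quantified by TMT10plex mass spectrometry, three independent biological replicates.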
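For solubility change mitosis vs G1/S (difference of NP-40 vs SDS log2 ratios) in this document: synchronized HeLa Kyoto cells (double thymidine block for G1/S, nocodazole release for mitosis), protein amounts in NP-40 versus SDS lysates quantified by mass spectrometry, three biological replicates.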
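For solubility in G1/S (NP-40 vs SDS abundance) in this document: HeLa Kyoto cells arrested at G1/S by double thymidine block, proteins quantified by TMT10plex mass spectrometry in mild NP-40 versus SDS extracts, three biological replicates.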
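For thermal stability score vs G1/S (z-score of summed log2 fold changes over temperatures) in this document: synchronized HeLa Kyoto cells, proteins quantified by TMT10plex mass spectrometry, three biological replicates, mitosis taken 0.5 h after nocodazole release, G1/S directly after double thymidine block.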

Substance | solubility change mitosis (log2) [1] | thermal stability score [2, 5] | thermal stability score ([2]; cell cycle stage: mitosis) | solubility in G1/S (log2) [3] | melting temperature ([4]; cell cycle stage: G1/S) [°C] | melting temperature ([4]; cell cycle stage: mitosis) [°C]
MVVTRSARAKASIQAASAESSGQKSFAANGIQAHPESSTGSDARTTAESQTTGKQSLIPRTPKARKRKSRTTGSLPKGTEPSTDGETSEAESNYSVSEHHDTILRVTRRRQILIACSPVSSVRKKPKVTPTKESYTEEIVSEAESHVSGISRIVLPTEKTTGARRSKAKSLTDPSQESHTEAISDAETSSSDISFSGIATRRTRSMQRKLKAQTEKKDSKIVPGNEKQIVGTPVNSEDSDTRQTSHLQARSLSEINKPNFYNNDFDDDFSHRSSENILTVHEQANVESLKETKQNCKDLDEDANGITDEGKEINEKSSQLKNLSELQDTSLQQLVSQRHSTPQNKNAVSVHSNLNSEAVMKSLTQTFATVEVGRWNNNKKSPIKASDLTKFGDCGGSDDEEESTVISVSEDMNSEGNVDFECDTKLYTSAPNTSQGKDNSVLLVLSSDESQQSENSENEEDTLCFVENSGQRESLSGDTGSLSCDNALFVIDTTPGMSADKNFYLEEEDKASEVAIEEEKEEEEDEKSEEDSSDHDENEDEFSDEEDFLNSTKAKLLKLTSSSIDPGLSIKQLGGLYINFNADKLQSNKRTLTQIKEKKKNELLQKAVITPDFEKNHCVPPYSESKYQLQKKRRKERQKTAGDGWFGMKAPEMTNELKNDLKALKMRASMDPKRFYKKNDRDGFPKYFQIGTIVDNPADFYHSRIPKKQRKRTIVEELLADSEFRRYNRRKYSEIMAEKAANAAGKKFRKKKKFRN [DNTTIP2] | 1.04 | 2.7 | 4.77 | -2.06 | 48.9 | 52.4
MSGPTWLPPKQPEPARAPQGRAIPRGTPGPPPAHGAALQPHPRVNFCPLPSEQCYQAPGGPEDRGPAWVGSHGVLQHTQGLPADRGGLRPGSLDAEIDLLSSTLAELNGGRGHASRRPDRQAYEPPPPPAYRTGSLKPNPASPLPASPYGGPTPASYTTASTPAGPAFPVQVKVAQPVRGCGPPRRGASQASGPLPGPHFPLPGRGEVWGPGYRSQREPGPGAKEEAAGVSGPAGRGRGGEHGPQVPLSQPPEDELDRLTKKLVHDMNHPPSGEYFGQCGGCGEDVVGDGAGVVALDRVFHVGCFVCSTCRAQLRGQHFYAVERRAYCEGCYVATLEKCATCSQPILDRILRAMGKAYHPGCFTCVVCHRGLDGIPFTVDATSQIHCIEDFHRKFAPRCSVCGGAIMPEPGQEETVRIVALDRSFHIGCYKCEECGLLLSSEGECQGCYPLDGHILCKACSAWRIQELSATVTTDC [TRIP6] | -0.132 | 0.24 | -0.443 | -0.106 | 52 | 52
MAAPLELSCWGGGWGLPSVHSESLVVMAYAKFSGAPLKVNVIDNTWRGSRGDVPILTTEDDMVSQPAKILNFLRKQKYNADYELSAKQGADTLAYIALLEEKLLPAVLHTFWVESDNYFTVTKPWFASQIPFPLSLILPGRMSKGALNRILLTRGQPPLYHLREVEAQIYRDAKECLNLLSNRLGTSQFFFGDTPSTLDAYVFGFLAPLYKVRFPKVQLQEHLKQLSNLCRFCDDILSSYFRLSLGGISPAGQETVDANLQKLTQLVNKESNLIEKMDDNLRQSPQLPPRKLPTLKLTPAEEENNSFQRLSP [MTX3] | 0.0458 | -1.88 | -1.18 | 0.0969 | 51.4 | 53
MHSEAEESKEVATDVFNSKNLAVQAQKKILGKMVSKSIATTLIDDTSSEVLDELYRVTREYTQNKKEAEKIIKNLIKTVIKLAILYRNNQFNQDELALMEKFKKKVHQLAMTVVSFHQVDYTFDRNVLSRLLNECREMLHQIIQRHLTAKSHGRVNNVFDHFSDCEFLAALYNPFGNFKPHLQKLCDGINKMLDEENI [TNFAIP8] | -0.272 | 0.429 | -0.108 | 0.339 | 51.9 | 51.7
MSSVSPIQIPSRLPLLLTHEGVLLPGSTMRTSVDSARNLQLVRSRLLKGTSLQSTILGVIPNTPDPASDAQDLPPLHRIGTAALAVQVVGSNWPKPHYTLLITGLCRFQIVQVLKEKPYPIAEVEQLDRLEEFPNTCKMREELGELSEQFYKYAVQLVEMLDMSVPAVAKLRRLLDSLPREALPDILTSIIRTSNKEKLQILDAVSLEERFKMTIPLLVRQIEGLKLLQKTRKPKQDDDKRVIAIRPIRRITHISGTLEDEDEDEDNDDIVMLEKKIRTSSMPEQAHKVCVKEIKRLKKMPQSMPEYALTRNYLELMVELPWNKSTTDRLDIRAARILLDNDHYAMEKLKKRVLEYLAVRQLKNNLKGPILCFVGPPGVGKTSVGRSVAKTLGREFHRIALGGVCDQSDIRGHRRTYVGSMPGRIINGLKTVGVNNPVFLLDEVDKLGKSLQGDPAAALLEVLDPEQNHNFTDHYLNVAFDLSQVLFIATANTTATIPAALLDRMEIIQVPGYTQEEKIEIAHRHLIPKQLEQHGLTPQQIQIPQVTTLDIITRYTREAGVRSLDRKLGAICRAVAVKVAEGQHKEAKLDRSDVTEREGCREHILEDEKPESISDTTDLALPPEMPILIDFHALKDILGPPMYEMEVSQRLSQPGVAIGLAWTPLGGEIMFVEASRMDGEGQLTLTGQLGDVMKESAHLAISWLRSNAKKYQLTNAFGSFDLLDNTDIHLHFPAGAVTKDGPSAGVTIVTCLASLFSGRLVRSDVAMTGEITLRGLVLPVGGIKDKVLAAHRAGLKQVIIPRRNEKDLEGIPGNVRQDLSFVTASCLDEVLNAAFDGGFTVKTRPGLLNSKL [LONP2] | -0.132 | 0.257 | 0.49 | 0.0116 | 52.3 | 52.1
MMGHRPVLVLSQNTKRESGRKVQSGNINAAKTIADIIRTCLGPKSMMKMLLDPMGGIVMTNDGNAILREIQVQHPAAKSMIEISRTQDEEVGDGTTSVIILAGEMLSVAEHFLEQQMHPTVVISAYRKALDDMISTLKKISIPVDISDSDMMLNIINSSITTKAISRWSSLACNIALDAVKMVQFEENGRKEIDIKKYARVEKIPGGIIEDSCVLRGVMINKDVTHPRMRRYIKNPRIVLLDSSLEYKKGESQTDIEITREEDFTRILQMEEEYIQQLCEDIIQLKPDVVITEKGISDLAQHYLMRANITAIRRVRKTDNNRIARACGARIVSRPEELREDDVGTGAGLLEIKKIGDEYFTFITDCKDPKACTILLRGASKEILSEVERNLQDAMQVCRNVLLDPQLVPGGGASEMAVAHALTEKSKAMTGVEQWPYRAVAQALEVIPRTLIQNCGASTIRLLTSLRAKHTQENCETWGVNGETGTLVDMKELGIWEPLAVKLQTYKTAVETAVLLLRIDDIVSGHKKKGDDQSRQGGAPDAGQE [CCT3] | -0.131 | 0.0574 | -0.798 | 0.216 | 54 | 53.6
MAATKRKRRGGFAVQAKKPKRNEIDAEPPAKRHATAEEVEEEERDRIPGPVCKGKWKNKERILIFSSRGINFRTRHLMQDLRMLMPHSKADTKMDRKDKLFVINEVCEMKNCNKCIYFEAKKKQDLYMWLSNSPHGPSAKFLVQNIHTLAELKMTGNCLKGSRPLLSFDPAFDELPHYALLKELLIQIFSTPRYHPKSQPFVDHVFTFTILDNRIWFRNFQIIEEDAALVEIGPRFVLNLIKIFQGSFGGPTLYENPHYQSPNMHRRVIRSITAAKYREKQQVKDVQKLRKKEPKTLLPHDPTADVFVTPAEEKPIEIQWVKPEPKVDLKARKKRIYKRQRKMKQRMDSGKTK [BRIX1] | 1.19 | 0.649 | -2.33 | -2.07 | 53.8 | 52.9
MAITLEEAPWLGWLLVKALMRFAFMVVNNLVAIPSYICYVIILQPLRVLDSKRFWYIEGIMYKWLLGMVASWGWYAGYTVMEWGEDIKAVSKDEAVMLVNHQATGDVCTLMMCLQDKGLVVAQMMWLMDHIFKYTNFGIVSLVHGDFFIRQGRSYRDQQLLLLKKHLENNYRSRDRKWIVLFPEGGFLRKRRETSQAFAKKNNLPFLTNVTLPRSGATKIILNALVAQQKNGSPAGGDAKELDSKSKGLQWIIDTTIAYPKAEPIDIQTWILGYRKPTVTHVHYRIFPIKDVPLETDDLTTWLYQRFVEKEDLLSHFYETGAFPPSKGHKEAVSREMTLSNLWIFLIQSFAFLSGYMWYNIIQYFYHCLF [LPGAT1] | -0.152 | 0.187 | -0.757 | -0.142 | 51.1 | 51.3
PIEZO1 | -0.0922 | -1.8 | -2.23 | -0.227 | 57.1 | 56.5
MAAAAASAPQQLSDEELFSQLRRYGLSPGPVTESTRPVYLKKLKKLREEEQQQHRSGGRGNKTRNSNNNNTAAATVAAAGPAAAAAAGMGVRPVSGDLSYLRTPGGLCRISASGPESLLGGPGGASAAPAAGSKVLLGFSSDESDVEASPRDQAGGGGRKDRASLQYRGLKAPPAPLAASEVTNSNSAERRKPHSWWGARRPAGPELQTPPGKDGAVEDEEGEGEDGEERDPETEEPLWASRTVNGSRLVPYSCRENYSDSEEEDDDDVASSRQVLKDDSLSRHRPRRTHSKPLPPLTAKSAGGRLETSVQGGGGLAMNDRAAAAGSLDRSRNLEEAAAAEQGGGCDQVDSSPVPRYRVNAKKLTPLLPPPLTDMDSTLDSSTGSLLKTNNHIGGGAFSVDSPRIYSNSLPPSAAVAASSSLRINHANHTGSNHTYLKNTYNKPKLSEPEEELLQQFKREEVSPTGSFSAHYLSMFLLTAACLFFLILGLTYLGMRGTGVSEDGELSIENPFGETFGKIQESEKTLMMNTLYKLHDRLAQLAGDHECGSSSQRTLSVQEAAAYLKDLGPEYEGIFNTSLQWILENGKDVGIRCVGFGPEEELTNITDVQFLQSTRPLMSFWCRFRRAFVTVTHRLLLLCLGVVMVCVVLRYMKYRWTKEEEETRQMYDMVVKIIDVLRSHNEACQENKDLQPYMPIPHVRDSLIQPHDRKKMKKVWDRAVDFLAANESRVRTETRRIGGADFLVWRWIQPSASCDKILVIPSKVWQGQAFHLDRRNSPPNSLTPCLKIRNMFDPVMEIGDQWHLAIQEAILEKCSDNDGIVHIAVDKNSREGCVYVKCLSPEYAGKAFKALHGSWFDGKLVTVKYLRLDRYHHRFPQALTSNTPLKPSNKHMNSMSHLRLRTGLTNSQGSS [LEMD3] | -0.0382 | 2.33 | 3.33 | 0.0762 | 49.1 | 50.5
NFAT5 | -0.176 | 0.898 | 1.21 | -0.0162 | 50 | 50.6
MAGTGLVAGEVVVDALPYFDQGYEAPGVREAAAALVEEETRRYRPTKNYLSYLTAPDYSAFETDIMRNEFERLAARQPIELLSMKRYELPAPSSGQKNDITAWQECVNNSMAQLEHQAVRIENLELMSQHGCNAWKVYNENLVHMIEHAQKELQKLRKHIQDLNWQRKNMQLTAGSKLREMESNWVSLVSKNYEIERTIVQLENEIYQIKQQHGEANKENIRQDF [BCAS2] | 0.721 | -0.858 | -0.925 | -0.134 | 50.4 | 50.3
MSDDAGDTLATGDKAEVTEMPNSDSLPEDAEVHCDSAAVSHEPTPADPRGEGHENAAVQGAGAAAIGPPVQPQDANALEPPLNGDVTEDTLAECIDSVSLEAEPRSEIPLQEQNYLAVDSPPSGGGWAGWGSWGKSLLSSASATVGHGLTAVKEKAGATLRIHGVNSGSSEGAQPNTENGVPEITDAATDQGPAESPPTSPSSASRGMLSAITNVVQNTGKSVLTGGLDALEFIGKKTMNVLAESDPGFKRTKTLMERTVSLSQMLREAKEKEKQRLAQQLTMERTAHYGMLFDEYQGLSHLEALEILSNESESKVQSFLASLDGEKLELLKNDLISIKDIFAAKELENEENQEEQGLEEKGEEFARMLTELLFELHVAATPDKLNKAMKRAHDWVEEDQTVVSVDVAKVSEEETKKEEKEEKSQDPQEDKKEEKKTKTIEEVYMSSIESLAEVTARCIEQLHKVAELILHGQEEEKPAQDQAKVLIKLTTAMCNEVASLSKKFTNSLTTVGSNKKAEVLNPMISSVLLEGCNSTTYIQDAFQLLLPVLQVSHIQTSCLKAQP [FAM114A1] | -0.158 | 0.444 | 0.327 | 0.474 | 52.9 | 53.1
MAKAYDHLFKLLLIGDSGVGKTCLIIRFAEDNFNNTYISTIGIDFKIRTVDIEGKKIKLQVWDTAGQERFKTITTAYYRGAMGIILVYDITDEKSFENIQNWMKSIKENASAGVERLLLGNKCDMEAKRKVQKEQADKLAREHGIRFFETSAKSSMNVDEAFSSLARDILLKSGGRRSGNGNKPPSTDLKTCDKKNTNKCSLG [RAB13] | -0.198 | -0.483 | -1.07 | -0.134 | 53.5 | 53

Source: the supplement of paper PMC5998384
